In general, Kd refers to a measure of binding affinity in units of concentration.

Consider one molecule from publication PMC10042821, “Cryo-EM structure of human eIF5A-DHS complex reveals the molecular basis of hypusination-associated neurodegenerative disorders” (Nature Communications, 2023).

Assay in all cases: MST; His-tagged DHS variants labelled with RED-tris-NTA 2nd Generation, 8.32 nM; eIF5A titrated, sixteen dilutions 0.00175–57.5 μM; 50 mM Tris, 200 mM NaCl, 5 mM β-ME pH 8; Monolith NT.115, 40% excitation power, 60% MST power; no NAD or SPD
What all share (settings): both partners purified

Experiment [1] concerns the target T1, deoxyhypusine synthase I271A, His-tagged (human, UniProt P49366 1-369, I271A, RED-tris-NTA 2nd Generation dye on the His tag).
T1 construct: human deoxyhypusine synthase, Uniprot P49366, residues 1-369, site-directed mutant of the pET24d full-length construct; also called DHS I271A; source: E. coli, purified; not shown: 6xHis, N-terminal, kept
T1 sequence (looked up): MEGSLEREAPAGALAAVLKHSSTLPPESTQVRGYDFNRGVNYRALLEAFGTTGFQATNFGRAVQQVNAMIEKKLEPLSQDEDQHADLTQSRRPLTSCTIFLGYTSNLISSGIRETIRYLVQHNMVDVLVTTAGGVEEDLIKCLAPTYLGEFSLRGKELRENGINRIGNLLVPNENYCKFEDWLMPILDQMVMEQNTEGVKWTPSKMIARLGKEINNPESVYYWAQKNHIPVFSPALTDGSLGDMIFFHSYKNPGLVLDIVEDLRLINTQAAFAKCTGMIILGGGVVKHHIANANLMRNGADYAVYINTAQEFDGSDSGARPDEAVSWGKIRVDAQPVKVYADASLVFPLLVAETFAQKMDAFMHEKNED

For experiment [2], the target named is T2, deoxyhypusine synthase, wild type, His-tagged (human, UniProt P49366 1-369, RED-tris-NTA 2nd Generation dye on the His tag).
T2 construct: human deoxyhypusine synthase, Uniprot P49366, residues 1-369, in pET24d with N-terminal 6xHis-tag and TEV site; also called DHS; DHS wt; source: E. coli, purified; not shown: 6xHis, N-terminal, kept
T2 sequence (looked up): T1 sequence (looked up) with A271I

Experiment [3] concerns the target T3, deoxyhypusine synthase F272A, His-tagged (human, UniProt P49366 1-369, F272A, RED-tris-NTA 2nd Generation dye on the His tag).
T3 construct: human deoxyhypusine synthase, Uniprot P49366, residues 1-369, site-directed mutant of the pET24d full-length construct; also called DHS F272A; source: E. coli, purified; not shown: 6xHis, N-terminal, kept
T3 sequence (looked up): T1 sequence (looked up) with A271I, F272A

Experiment [4] addresses T4, deoxyhypusine synthase M244A, His-tagged (human, UniProt P49366 1-369, M244A, RED-tris-NTA 2nd Generation dye on the His tag).
T4 construct: human deoxyhypusine synthase, Uniprot P49366, residues 1-369, site-directed mutant of the pET24d full-length construct; also called DHS M244A; source: E. coli, purified; not shown: 6xHis, N-terminal, kept
T4 sequence (looked up): T1 sequence (looked up) with M244A, A271I

Residue numbers refer to the chain shown, from its start.

B1: eukaryotic translation factor 5A (eIF5A-1), residues 15-151 (domain or fragment)
chain: not shown
notes: human eIF5A1, residues 15-151, from pET28-MHL (Addgene); The purification protocol removes the tag with TEV; source: E. coli, purified (HisTrap, TEV cleavage, reverse HisTrap, SEC); not shown: His tag, N-terminal, cleaved
As to B1, the Kd in experiment [1] is 56 ± 16 nM; in experiment [2], 40 ± 9 nM; in experiment [3], 504 ± 154 nM; in experiment [4], above 5 µM.
